Measurements from PMC2778690.
Read-outs that look alike come from different tables or passages of the source.

How the values were obtained:
[1] = target: Human Bax alpha (human) (UniProt Q07812); assay: cross-linking
[2] = target: Human Bax alpha (human) (UniProt Q07812); assay: cross-linking; remark: listed apart in the source

Human Bax alpha (from UniProt Q07812 1-192) (natural protein)
stoichiometry N [1]: 2
stoichiometry N [2]: < 8
